B1: Azoarcus group I ribozyme (parent)
chain: GUGCCUUGCGCCGGGAAACCACGCAAGGGAUGGUGUCAAAUUCGGCGAAACCUAAGCGCCCGCCCGGGCGUAUGGCAACGCCGAGCCAAGCUUCGGCGCCUGCGCCGAUGAAGGUGUAGAGACUAGACGGCACCCACCUAAGGCAAACGCUAUGGUGAAGGCAUAGUCCAGGGAGUGGCGAAAGUCACACAAACCGG

Variants of: B1
Test: reverse-splicing fitness (ratio to wild type); higher = more active; in vitro selection; Mg2+ level not given
How it was run: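 An in vitro group I ribozyme library with randomized positions was T7-transcribed and gel-purified. In triplicate, 10 pmol RNA in EPPS pH 7.5 was reacted with 50 pmoles of a 30-nt RNA substrate for 1 h at 37 °C across several added MgCl2 levels (1–48 mM), then stopped with EDTA. Products were reverse transcribed from a substrate-complementary primer, PCR-amplified and sequenced (HiSeq 4000). Fitness is a variant's read proportion after selection over that before, normalised to wild type.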

Q: Which reverse-splicing fitness does the source give for GUGCCUUGCGCCGGGAAACCACGCAAGGGAUGGUGUCAAAUUCGGCGAAACCUAAGCGCCCGCCCGGGCGUAUGGCAACGCCGAGCCAAGCUUCGGCGCCUGCGCCGAUGUAGGUGUAGAGACUAGACGGCACCCACCUAAGGCCAACGCUAUGGUGAAGGCAUAGUCAAGGGAGGGGCGAAAGUCACACAAACCGG here?
A: 0.00602

Q: Which reverse-splicing fitness does the source give for GUGCCUUGCGCCGGGAAACCACGCAAGGGAUGGUGUCAAAUUCGGCGAAACCUAAGCGCCCGCCCGGGCGUAUGGCAACGCCGAGCCAAGCUUCGGCGCCUGCGCCGAUGUAGGUGUAGAGACUAGACGGCACCCACCUAAGGCCAACGCUAUGGUGAAGGCAUAGUCAAGGGAGAGGCGAAAGUCACACAAACCGG here?
A: 0.0105

Q: For GUGCCUUGCGCCGGGAAACCACGCAAGGGAUGGUGUCAAAUUCGGCGAAACCUAAGCGCCCGCCCGGGCGUAUGGCAACGCCGAGCCAAGCUUCGGCGCCUGCGCCGAUGUAGGUGUAGAGACUAGACGGCACCCACCUAAGGCCAACGCUAUGGUGAAGGCAUAGUCAAGGGAGCGGCGAAAGUCACACAAACCGG, which reverse-splicing fitness is on record?
A: 0.00885

Q: Which reverse-splicing fitness does the source give for GUGCCUUGCGCCGGGAAACCACGCAAGGGAUGGUGUCAAAUUCGGCGAAACCUAAGCGCCCGCCCGGGCGUAUGGCAACGCCGAGCCAAGCUUCGGCGCCUGCGCCGAUGUAGGUGUAGAGACUAGACGGCACCCACCUAAGGCCAACGUUAUGGUGAAGGCAUAGUCCAGGGAGGGGCGAAAGUCACACAAACCGG here?
A: 0.189

Q: For GUGCCUUGCGCCGGGAAACCACGCAAGGGAUGGUGUCAAAUUCGGCGAAACCUAAGCGCCCGCCCGGGCGUAUGGCAACGCCGAGCCAAGCUUCGGCGCCUGCGCCGAUGUAGGUGUAGAGACUAGACGGCACCCACCUAAGGCCAACGUUAUGGUGAAGGCAUAGUCCAGGGAGAGGCGAAAGUCACACAAACCGG, which reverse-splicing fitness is on record?
A: 0.399

Q: For GUGCCUUGCGCCGGGAAACCACGCAAGGGAUGGUGUCAAAUUCGGCGAAACCUAAGCGCCCGCCCGGGCGUAUGGCAACGCCGAGCCAAGCUUCGGCGCCUGCGCCGAUGUAGGUGUAGAGACUAGACGGCACCCACCUAAGGCCAACGUUAUGGUGAAGGCAUAGUCCAGGGAGCGGCGAAAGUCACACAAACCGG, which reverse-splicing fitness is on record?
A: 0.436

Q: For GUGCCUUGCGCCGGGAAACCACGCAAGGGAUGGUGUCAAAUUCGGCGAAACCUAAGCGCCCGCCCGGGCGUAUGGCAACGCCGAGCCAAGCUUCGGCGCCUGCGCCGAUGUAGGUGUAGAGACUAGACGGCACCCACCUAAGGCGAACGAUAUGGUGAAGGCAUAGUCCAGGGAGUGGCGAAAGUCACACAAACCGG, which reverse-splicing fitness is on record?
A: 0.516

Q: With GUGCCUUGCGCCGGGAAACCACGCAAGGGAUGGUGUCAAAUUCGGCGAAACCUAAGCGCCCGCCCGGGCGUAUGGCAACGCCGAGCCAAGCUUCGGCGCCUGCGCCGAUGUAGGUGUAGAGACUAGACGGCACCCACCUAAGGCGAACGAUAUGGUGAAGGCAUAGUCAAGGGAGGGGCGAAAGUCACACAAACCGG as the variant, how does the reverse-splicing fitness read?
A: 0.0068

Q: Which reverse-splicing fitness does the source give for GUGCCUUGCGCCGGGAAACCACGCAAGGGAUGGUGUCAAAUUCGGCGAAACCUAAGCGCCCGCCCGGGCGUAUGGCAACGCCGAGCCAAGCUUCGGCGCCUGCGCCGAUGUAGGUGUAGAGACUAGACGGCACCCACCUAAGGCGAACGAUAUGGUGAAGGCAUAGUCAAGGGAGAGGCGAAAGUCACACAAACCGG here?
A: 0.0172

Q: For GUGCCUUGCGCCGGGAAACCACGCAAGGGAUGGUGUCAAAUUCGGCGAAACCUAAGCGCCCGCCCGGGCGUAUGGCAACGCCGAGCCAAGCUUCGGCGCCUGCGCCGAUGUAGGUGUAGAGACUAGACGGCACCCACCUAAGGCGAACGAUAUGGUGAAGGCAUAGUCAAGGGAGCGGCGAAAGUCACACAAACCGG, which reverse-splicing fitness is on record?
A: 0.0233

Q: Which reverse-splicing fitness does the source give for GUGCCUUGCGCCGGGAAACCACGCAAGGGAUGGUGUCAAAUUCGGCGAAACCUAAGCGCCCGCCCGGGCGUAUGGCAACGCCGAGCCAAGCUUCGGCGCCUGCGCCGAUGUAGGUGUAGAGACUAGACGGCACCCACCUAAGGCGAACGAUAUGGUGAAGGCAUAGUCUAGGGAGAGGCGAAAGUCACACAAACCGG here?
A: 0.0173

Q: With GUGCCUUGCGCCGGGAAACCACGCAAGGGAUGGUGUCAAAUUCGGCGAAACCUAAGCGCCCGCCCGGGCGUAUGGCAACGCCGAGCCAAGCUUCGGCGCCUGCGCCGAUGUAGGUGUAGAGACUAGACGGCACCCACCUAAGGCCAACGCUAUGGUGAAGGCAUAGUCGAGGGAGAGGCGAAAGUCACACAAACCGG as the variant, how does the reverse-splicing fitness read?
A: 0.0286

Q: Which reverse-splicing fitness does the source give for GUGCCUUGCGCCGGGAAACCACGCAAGGGAUGGUGUCAAAUUCGGCGAAACCUAAGCGCCCGCCCGGGCGUAUGGCAACGCCGAGCCAAGCUUCGGCGCCUGCGCCGAUGUAGGUGUAGAGACUAGACGGCACCCACCUAAGGCCAACGCUAUGGUGAAGGCAUAGUCGAGGGAGGGGCGAAAGUCACACAAACCGG here?
A: 0.00585

Q: For GUGCCUUGCGCCGGGAAACCACGCAAGGGAUGGUGUCAAAUUCGGCGAAACCUAAGCGCCCGCCCGGGCGUAUGGCAACGCCGAGCCAAGCUUCGGCGCCUGCGCCGAUGUAGGUGUAGAGACUAGACGGCACCCACCUAAGGCCAACGCUAUGGUGAAGGCAUAGUCGAGGGAGCGGCGAAAGUCACACAAACCGG, which reverse-splicing fitness is on record?
A: 0.0232

Q: With GUGCCUUGCGCCGGGAAACCACGCAAGGGAUGGUGUCAAAUUCGGCGAAACCUAAGCGCCCGCCCGGGCGUAUGGCAACGCCGAGCCAAGCUUCGGCGCCUGCGCCGAUGUAGGUGUAGAGACUAGACGGCACCCACCUAAGGCGAACGAUAUGGUGAAGGCAUAGUCAAGGGAGUGGCGAAAGUCACACAAACCGG as the variant, how does the reverse-splicing fitness read?
A: 0.0132

Q: Which reverse-splicing fitness does the source give for GUGCCUUGCGCCGGGAAACCACGCAAGGGAUGGUGUCAAAUUCGGCGAAACCUAAGCGCCCGCCCGGGCGUAUGGCAACGCCGAGCCAAGCUUCGGCGCCUGCGCCGAUGUAGGUGUAGAGACUAGACGGCACCCACCUAAGGCGAACGAUAUGGUGAAGGCAUAGUCUAGGGAGUGGCGAAAGUCACACAAACCGG here?
A: 0.0213

Q: With GUGCCUUGCGCCGGGAAACCACGCAAGGGAUGGUGUCAAAUUCGGCGAAACCUAAGCGCCCGCCCGGGCGUAUGGCAACGCCGAGCCAAGCUUCGGCGCCUGCGCCGAUGUAGGUGUAGAGACUAGACGGCACCCACCUAAGGCGAACGAUAUGGUGAAGGCAUAGUCGAGGGAGUGGCGAAAGUCACACAAACCGG as the variant, how does the reverse-splicing fitness read?
A: 0.0147

Q: Which reverse-splicing fitness does the source give for GUGCCUUGCGCCGGGAAACCACGCAAGGGAUGGUGUCAAAUUCGGCGAAACCUAAGCGCCCGCCCGGGCGUAUGGCAACGCCGAGCCAAGCUUCGGCGCCUGCGCCGAUGUAGGUGUAGAGACUAGACGGCACCCACCUAAGGCGAACGAUAUGGUGAAGGCAUAGUCGAGGGAGAGGCGAAAGUCACACAAACCGG here?
A: 0.0163

Q: Which reverse-splicing fitness does the source give for GUGCCUUGCGCCGGGAAACCACGCAAGGGAUGGUGUCAAAUUCGGCGAAACCUAAGCGCCCGCCCGGGCGUAUGGCAACGCCGAGCCAAGCUUCGGCGCCUGCGCCGAUGUAGGUGUAGAGACUAGACGGCACCCACCUAAGGCGAACGAUAUGGUGAAGGCAUAGUCGAGGGAGCGGCGAAAGUCACACAAACCGG here?
A: 0.0292

Q: Which reverse-splicing fitness does the source give for GUGCCUUGCGCCGGGAAACCACGCAAGGGAUGGUGUCAAAUUCGGCGAAACCUAAGCGCCCGCCCGGGCGUAUGGCAACGCCGAGCCAAGCUUCGGCGCCUGCGCCGAUGUAGGUGUAGAGACUAGACGGCACCCACCUAAGGCGAACGAUAUGGUGAAGGCAUAGUCGAGGGAGGGGCGAAAGUCACACAAACCGG here?
A: 0.00603

Q: For GUGCCUUGCGCCGGGAAACCACGCAAGGGAUGGUGUCAAAUUCGGCGAAACCUAAGCGCCCGCCCGGGCGUAUGGCAACGCCGAGCCAAGCUUCGGCGCCUGCGCCGAUGUAGGUGUAGAGACUAGACGGCACCCACCUAAGGCCAACGCUAUGGUGAAGGCAUAGUCAAGGGAGUGGCGAAAGUCACACAAACCGG, which reverse-splicing fitness is on record?
A: 0.027

Q: Which reverse-splicing fitness does the source give for GUGCCUUGCGCCGGGAAACCACGCAAGGGAUGGUGUCAAAUUCGGCGAAACCUAAGCGCCCGCCCGGGCGUAUGGCAACGCCGAGCCAAGCUUCGGCGCCUGCGCCGAUGUAGGUGUAGAGACUAGACGGCACCCACCUAAGGCCAACGCUAUGGUGAAGGCAUAGUCGAGGGAGUGGCGAAAGUCACACAAACCGG here?
A: 0.0589

Q: For GUGCCUUGCGCCGGGAAACCACGCAAGGGAUGGUGUCAAAUUCGGCGAAACCUAAGCGCCCGCCCGGGCGUAUGGCAACGCCGAGCCAAGCUUCGGCGCCUGCGCCGAUGUAGGUGUAGAGACUAGACGGCACCCACCUAAGGCCAACGCUAUGGUGAAGGCAUAGUCUAGGGAGUGGCGAAAGUCACACAAACCGG, which reverse-splicing fitness is on record?
A: 0.108

Q: For GUGCCUUGCGCCGGGAAACCACGCAAGGGAUGGUGUCAAAUUCGGCGAAACCUAAGCGCCCGCCCGGGCGUAUGGCAACGCCGAGCCAAGCUUCGGCGCCUGCGCCGAUGUAGGUGUAGAGACUAGACGGCACCCACCUAAGGCCAACGCUAUGGUGAAGGCAUAGUCUAGGGAGAGGCGAAAGUCACACAAACCGG, which reverse-splicing fitness is on record?
A: 0.0252

Q: With GUGCCUUGCGCCGGGAAACCACGCAAGGGAUGGUGUCAAAUUCGGCGAAACCUAAGCGCCCGCCCGGGCGUAUGGCAACGCCGAGCCAAGCUUCGGCGCCUGCGCCGAUGUAGGUGUAGAGACUAGACGGCACCCACCUAAGGCCAACGCUAUGGUGAAGGCAUAGUCUAGGGAGCGGCGAAAGUCACACAAACCGG as the variant, how does the reverse-splicing fitness read?
A: 0.0265

Q: For GUGCCUUGCGCCGGGAAACCACGCAAGGGAUGGUGUCAAAUUCGGCGAAACCUAAGCGCCCGCCCGGGCGUAUGGCAACGCCGAGCCAAGCUUCGGCGCCUGCGCCGAUGUAGGUGUAGAGACUAGACGGCACCCACCUAAGGCCAACGCUAUGGUGAAGGCAUAGUCUAGGGAGGGGCGAAAGUCACACAAACCGG, which reverse-splicing fitness is on record?
A: 0.0061

Q: Which reverse-splicing fitness does the source give for GUGCCUUGCGCCGGGAAACCACGCAAGGGAUGGUGUCAAAUUCGGCGAAACCUAAGCGCCCGCCCGGGCGUAUGGCAACGCCGAGCCAAGCUUCGGCGCCUGCGCCGAUGUAGGUGUAGAGACUAGACGGCACCCACCUAAGGCGAACGCUAUGGUGAAGGCAUAGUCCAGGGAGUGGCGAAAGUCACACAAACCGG here?
A: 0.921

Q: With GUGCCUUGCGCCGGGAAACCACGCAAGGGAUGGUGUCAAAUUCGGCGAAACCUAAGCGCCCGCCCGGGCGUAUGGCAACGCCGAGCCAAGCUUCGGCGCCUGCGCCGAUGUAGGUGUAGAGACUAGACGGCACCCACCUAAGGCCAACGCUAUGGUGAAGGCAUAGUCCAGGGAGGGGCGAAAGUCACACAAACCGG as the variant, how does the reverse-splicing fitness read?
A: 0.329

Q: With GUGCCUUGCGCCGGGAAACCACGCAAGGGAUGGUGUCAAAUUCGGCGAAACCUAAGCGCCCGCCCGGGCGUAUGGCAACGCCGAGCCAAGCUUCGGCGCCUGCGCCGAUGUAGGUGUAGAGACUAGACGGCACCCACCUAAGGCCAACGCUAUGGUGAAGGCAUAGUCCAGGGAGCGGCGAAAGUCACACAAACCGG as the variant, how does the reverse-splicing fitness read?
A: 0.706

Q: With GUGCCUUGCGCCGGGAAACCACGCAAGGGAUGGUGUCAAAUUCGGCGAAACCUAAGCGCCCGCCCGGGCGUAUGGCAACGCCGAGCCAAGCUUCGGCGCCUGCGCCGAUGUAGGUGUAGAGACUAGACGGCACCCACCUAAGGCCAACGCUAUGGUGAAGGCAUAGUCCAGGGAGAGGCGAAAGUCACACAAACCGG as the variant, how does the reverse-splicing fitness read?
A: 0.757

— the RNAGym collection of RNA variant scans (doi:10.1093/molbev/msab373)
